Assay results: article PMC3918043

B1: wtANF-Sp-s1 (dsDNA)
DNA 1: GTGACAGAATGGGGAGGGTTCCAGCTCT
DNA 2: AGAGCTGGAACCCTCCCCATTCTGTCAC
B2: wtANF-Sp-s2 (dsDNA)
DNA 1: TGAGGGTCTGGGGGAGGGAGGGTTACTGGAG
DNA 2: CTCCAGTAACCCTCCCTCCCCCAGACCCTCA
B3: wtANF-Sp-s3 (dsDNA)
DNA 1: TATTGCCTCTCCTCCCGCCCTTATTTGGAG
DNA 2: CTCCAAATAAGGGCGGGAGGAGAGGCAATA
B4: wtANF-Sp-s4 (dsDNA)
DNA 1: GACATCTAGGGTGGGGGTGGGCTGTCTGG
DNA 2: CCAGACAGCCCACCCCCACCCTAGATGTC

Biological target: Sp1 (human, UniProt P08047 1-785)
Assay: EMSA

Chain of Sp1 (P08047 whole entry): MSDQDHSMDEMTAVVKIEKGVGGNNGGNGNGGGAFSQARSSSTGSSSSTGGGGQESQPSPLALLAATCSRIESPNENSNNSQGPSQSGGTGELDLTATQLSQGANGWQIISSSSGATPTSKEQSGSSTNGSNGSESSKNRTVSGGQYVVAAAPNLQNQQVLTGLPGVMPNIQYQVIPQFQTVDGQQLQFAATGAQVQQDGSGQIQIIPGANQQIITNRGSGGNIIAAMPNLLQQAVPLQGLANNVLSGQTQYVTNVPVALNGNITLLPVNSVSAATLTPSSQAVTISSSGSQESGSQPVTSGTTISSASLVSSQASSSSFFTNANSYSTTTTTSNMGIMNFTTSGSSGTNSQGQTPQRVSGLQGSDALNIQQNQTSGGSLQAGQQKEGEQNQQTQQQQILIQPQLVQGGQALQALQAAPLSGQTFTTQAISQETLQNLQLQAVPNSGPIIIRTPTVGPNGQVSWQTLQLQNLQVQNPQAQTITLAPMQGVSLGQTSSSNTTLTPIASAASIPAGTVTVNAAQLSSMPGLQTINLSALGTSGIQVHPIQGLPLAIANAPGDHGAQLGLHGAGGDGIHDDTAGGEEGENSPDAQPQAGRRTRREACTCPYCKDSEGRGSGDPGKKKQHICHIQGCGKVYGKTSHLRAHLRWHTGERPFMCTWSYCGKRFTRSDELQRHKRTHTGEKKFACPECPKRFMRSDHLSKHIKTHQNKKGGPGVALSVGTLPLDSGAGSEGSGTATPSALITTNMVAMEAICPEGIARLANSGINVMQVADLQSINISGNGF

Binding result, binds:
B1
B2
B3
B4
